Test results published in publication PMC10133315, “Overcoming adaptive resistance to anti-VEGF therapy by targeting CD5L”.

Target: T1, CD5L (AIM) (Homo sapiens, UniProt O43866 20-347)
T1 sequence: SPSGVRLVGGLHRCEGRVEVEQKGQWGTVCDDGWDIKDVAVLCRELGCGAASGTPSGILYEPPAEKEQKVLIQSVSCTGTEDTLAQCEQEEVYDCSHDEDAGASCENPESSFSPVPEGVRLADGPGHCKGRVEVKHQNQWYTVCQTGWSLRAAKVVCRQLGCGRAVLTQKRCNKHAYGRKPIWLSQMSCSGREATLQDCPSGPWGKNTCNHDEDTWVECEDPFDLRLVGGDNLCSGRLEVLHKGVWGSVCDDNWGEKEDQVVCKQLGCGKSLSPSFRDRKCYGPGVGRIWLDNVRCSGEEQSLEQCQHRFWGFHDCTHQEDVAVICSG
Experiment: MST; Cy5-S76.T 2 nM, CD5L titrated; MST: S11/S23 in binding buffer pH 7.4, 1 mM MgCl2, 0.1% Tween 20, 1 nM labelled protein; S76 in TBS; S76.T (Cy5, 2 nM) in 50 mM Tris-HCl pH 7.8, 150 mM NaCl, 0.05% Tween 20; temperature not stated
Conditions: protein: commercial; tags: His-tag; label: Cy5; hairpin

AGGUUGCAGCGUUCGACAGGAGGCUCACAACAG (structured_RNA, 2'-fluoro pyrimidines) [S76.T] showed a Kd of 10.1 ± 2.3 nM.
